Source: article PMC5600358

B1: ds59 (Pu59/Py59) (dsDNA)
DNA 1: GGCGGCGCGGAGGGGCGGGCGCGGGAGGAAGGGGGCGGGACGGGGCTGTGGTGCCTGT
DNA 2: ACAGGCACCACAGCCCCGTCCCGCCCCCTTCCTCCCGCGCCCGCCCCTCCGCGCCGCC
B2: Pu59 (G-strand) (structured_DNA)
DNA: B1 DNA 1
B3: Py59 (C-strand) (ssDNA)
DNA: B1 DNA 2

Each binder was assayed against WT1 ZF-KTS (zinc finger domain, -KTS isoform) (Homo sapiens (cDNA from HL-60 cells), UniProt P19544 312-407+411-449, internal_change) (assay: EMSA).

Row | Binder | binding result
1 | B1 | binds
2 | B2 | no binding
3 | B3 | no binding
